# From patent US20230312651A1, “Cyclic Peptide, Peptide Complex, and Drug Composition Containing Said Cyclic Peptide and/or Said Peptide Complex” (The University of Tokyo, priority 2020, published 2023)
# “Also recorded” adds a separate entry of the source. Starred links: 1 amine or outer side, 2 acyl side, 3 side chain; linkers in the order of their positions; H or OH if unused. Positions of bridges follow the written chain, without caps; N, C: chain ends. Non-standard residues stand in square brackets, D forms with d. Chains are numbered I, II in the order given. No end group written: not given here. NH(CH2CH2O)6CH2CO = O=C(COCCOCCOCCOCCOCCOCCN[*:1])[*:2]; Dap = NC[C@H](N)C(=O)O
# B1: SEQ ID NO 10 (peptide)
# peptide: Ac-YRFWQTPRFRLCGSGSGS
# modifications: thioether (positions not given here); not fully specified (residue 1, bridges)
# notes: In the selection it stood as a peptide-mRNA/cDNA conjugate joined through a puromycin linker
# B2: SEQ ID NO 11 (peptide)
# peptide: Ac-YKYKFWAYIPTNCGSGSGS
# modifications: thioether (positions not given here); not fully specified (residue 1, bridges)
# notes: as for B1
# B3: SEQ ID NO 8 (peptide)
# peptide: Ac-YLQPKFKFWCGSGSGS
# modifications: thioether (positions not given here); not fully specified (residue 1, bridges)
# notes: as for B1
# B4: SEQ ID NO 7 (peptide)
# peptide: Ac-YLRPRYKFWCGSGSGS
# modifications: thioether (positions not given here); not fully specified (residue 1, bridges)
# notes: as for B1
# B5: SEQ ID NO 13 (peptide)
# peptide: Ac-YRLHQWINTFRCGSGSGS
# modifications: thioether (positions not given here); not fully specified (residue 1, bridges)
# notes: as for B1
# B6: SEQ ID NO 9 (peptide)
# peptide: Ac-YAHEGYKNSAFWCGSGSGS
# modifications: thioether (positions not given here); not fully specified (residue 1, bridges)
# notes: as for B1
# B7: SEQ ID NO 12 (peptide)
# peptide: Ac-YRIHPWITTYRCGSGSGS
# modifications: thioether (positions not given here); not fully specified (residue 1, bridges)
# notes: as for B1
# B8: SEQ ID NO 1 (peptide)
# peptide: Ac-YRHNSYEASAFWCGSGSGS
# modifications: thioether (positions not given here); not fully specified (residue 1, bridges)
# notes: as for B1
# B9: SEQ ID NO 3 (peptide)
# peptide: Ac-YRHSSYEASAFWCGSGSGS
# modifications: thioether (positions not given here); not fully specified (residue 1, bridges)
# notes: as for B1
# B10: SEQ ID NO 5 (peptide)
# peptide: Ac-YRHNSYEASTFWCGSGSGS
# modifications: thioether (positions not given here); not fully specified (residue 1, bridges)
# notes: as for B1
# B11: SEQ ID NO 6 (peptide)
# peptide: Ac-YRHNSYEASAFCCGSGSGS
# modifications: thioether (positions not given here); not fully specified (residue 1, bridges)
# notes: as for B1
# B12: SEQ ID NO 2 (peptide)
# peptide: Ac-YRHNSYKASAFWCGSGSGS
# modifications: thioether (positions not given here); not fully specified (residue 1, bridges)
# notes: as for B1
# B13: SEQ ID NO 4 (peptide)
# peptide: Ac-YRHDSYEASAFWCGSGSGS
# modifications: thioether (positions not given here); not fully specified (residue 1, bridges)
# notes: as for B1
# Tested on: Akt
# Test: Western blot of phosphorylated Akt (S473) in primary hippocampal neurons
# Assay type: cell-based, mouse
# Details: ANA-12 100 µM added 30 minutes before 1 nM DiTrbL3; p<0.05
# Experimental: (§1) After washing with 0.1 M PBS twice, cells were lysed in a radio-immunoprecipitation assay (RIPA) buffer containing 50 mM Tris-HCI (pH 7.4), 150 mM NaCl, 2 mM EDTA, 1% Nonidet P-40, 0.5% Na-deoxycholate, 0.1% SDS, 50 mM NaF, 0.2 mM Na3VO4, 10 µg/mL aprotinin, 10 µg/mL leupeptin, and 1 mM phenylmethylsulfonyl fluoride on ice for 30 minutes. After ultrasonic treatment and centrifugation at 20,000 ×g for 30 minutes, the supernatant was subjected to SDS-PAGE. Protein amount was quantified using Bicinchoninic Acid Kit (BCA-1, Sigma).
# (§2) The cell lysate (protein amount: 20 µg in P-TrkB, 10 µg in TrkB, and 5 µg in Akt and Erk) was separated using 8% polyacrylamide gel and transferred to a polyvinylidene difluoride membrane (Merck Millipore, Massachusetts, USA). […]
# (§3) Finally, after the resulting membrane was washed with TBST, an immune-positive bands were detected by a chemiluminescence method using a Luminata Crescendo HPR substrate (Merck Millipore). The relative phosphorylation level of each kinase was calculated as a ratio of phosphorylated kinase/all kinases.
row,Molecule,phosphorylation of Akt induced by DiTrbL3
1,"O=C(Nc1ccccc1C(=O)NC1CCCCNC1=O)c1cc2ccccc2s1 (stereo not drawn) [ANA-12, reference compound]",the phosphorylation activity decreased; also recorded: suppressed

# Target: T1, extracellular domain of hTrkC (Homo sapiens, UniProt Q16288)
# T1 construct: the extracellular domain of hTrkA, hTrkC, and hTrkB
# Test: SPR binding kinetics (Biacore T200), hTrkC
# Details: Homodimer (peptide complex), 1:1 binding model
# Experimental: (§4) With respect to the binding kinetics (binding affinity (dissociation constant) KD) of the cyclic peptides towards the extracellular domain of hTrkA, hTrkC, and hTrkB (which will hereinafter be called “hTrkA-C proteins”, collectively) immobilized on a sensor chip via a His6-tag, quantitative measurements making use of surface plasmon resonance (SPR) were carried out to evaluate the binding intensity and selectivity of the cyclic peptide to hTrkB, compared with that to hTrkA and hTrkC.
# (§5) The binding kinetics of each peptide towards the hTrkA-C proteins were determined using Biacore T200 (GE Healthcare). The buffer used was HBS-P+ (10 mM HEPES, 150 mM NaCl, and 0.05 vol% surfactant P20, pH 7.4) containing 0.1 vol% DMSO and 1 mM b-dodecyl-maltoside. 100 nM hTrkA-C proteins were immobilized on a Ni^2+ treated NTA chip in accordance with the manufacturer’s instructions (baseline response 1000 to 3000 refraction units). Peptides were injected as an analyte at a flow rate of […] and binding kinetics was modelled using a 1:1 binding model.
# T1 sequence (Q16288 32-429 limits assumed): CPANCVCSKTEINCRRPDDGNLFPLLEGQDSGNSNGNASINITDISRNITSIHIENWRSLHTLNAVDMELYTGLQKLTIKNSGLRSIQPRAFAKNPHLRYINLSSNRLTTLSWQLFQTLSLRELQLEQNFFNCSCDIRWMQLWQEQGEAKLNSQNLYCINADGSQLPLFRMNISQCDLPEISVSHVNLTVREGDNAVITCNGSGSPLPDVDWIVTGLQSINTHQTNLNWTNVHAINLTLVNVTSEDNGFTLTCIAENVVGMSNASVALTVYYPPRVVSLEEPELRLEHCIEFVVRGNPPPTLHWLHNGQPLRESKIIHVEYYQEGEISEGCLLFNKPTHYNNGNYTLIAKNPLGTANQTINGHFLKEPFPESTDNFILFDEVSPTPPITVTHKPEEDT
row,Molecule,"binding affinity KD, TrkC"
1,"I: {CH2CO}-YRHNSYEASAFWCGSGSGS[NH(CH2CH2O)6CH2CO][Dap]-NH2 / II: {CH2CO}-YRHNSYEASAFWCGSGSGS[NH(CH2CH2O)6CH2CO] (amide I:21-II:C; thioether I:N-I:13, II:N-II:13) [DiTrbL1]",N.B.

# Target: T2, extracellular domain of hTrkB (human, UniProt Q16620 32-430)
# T2 construct: extracellular domain; Immobilised on a Ni2+-treated NTA sensor chip through the His6-tag for SPR; fixed on His pulldown Dynabeads at 200 nM for the RaPID selection; also called human TrkB; TrkB extracellular domain; not shown: His6-tag
# Test: RaPID affinity selection, 5 rounds, on beads carrying TrkB extracellular domain; sequencing
# Details: not given
# Experimental: Next, the peptide-mRNA/cDNA conjugate libraries thus obtained were subjected to affinity selection. First, as control selection, the peptide-mRNA/cDNA conjugate libraries were passed three times through His pulldown Dynabeads (Life Technologies) (each passage for 10 minutes under the condition of 4° C.). The above process is called “pre-clearance” or negative selection and is performed to remove undesired binding to beads. […] The process is called “positive selection”.
# By heating at 95° C. for 5 minutes, the cDNAs were eluted from the beads and a portion of the eluted cDNAs was evaluated by quantitative PCR using Sybr Green I and thermal cycler (LightCycler (Roche)). The remaining portion of the cDNAs was amplified by PCR and used for the transcription of the mRNA library used for affinity selection in the next round.
# One round consisted of preparation of a library, pre-clearance, and positive selection, and the round was performed 5 times. […] The collected cDNAs were amplified by PCR, purified using a column (NucleoSpin (Machery-Nagel)), and sequenced using a high through-put sequencer (MiSeq (Illumina)). Data analysis was performed using a software (CLC Sequence Viewer 7 (Qiagen)).
# T2 sequence (Q16620 32-430): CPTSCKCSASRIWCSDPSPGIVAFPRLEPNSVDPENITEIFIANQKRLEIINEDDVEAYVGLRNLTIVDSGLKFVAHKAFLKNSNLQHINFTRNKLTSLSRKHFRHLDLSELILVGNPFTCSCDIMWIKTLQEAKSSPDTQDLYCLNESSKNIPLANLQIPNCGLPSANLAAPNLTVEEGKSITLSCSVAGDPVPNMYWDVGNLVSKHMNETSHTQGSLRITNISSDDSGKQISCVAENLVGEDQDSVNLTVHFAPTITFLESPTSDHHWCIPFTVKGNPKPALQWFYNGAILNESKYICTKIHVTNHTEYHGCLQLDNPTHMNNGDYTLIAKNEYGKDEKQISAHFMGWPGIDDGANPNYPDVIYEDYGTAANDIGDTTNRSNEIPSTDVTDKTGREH
row,Molecule,binding result
1,B1,binds
2,B2,binds
3,B3,binds
4,B4,binds
5,B5,binds
6,B6,binds
7,B7,binds
8,B8,binds
9,B9,binds
10,B10,binds
11,B11,binds
12,B12,binds
13,B13,binds

# Tested on: 40 RTKs (receptor tyrosine kinases)
# Test: Phospho-RTK array evaluation (off-target activity)
# Assay type: cell-based, mouse
# Details: ANA-12 100 µM added 30 minutes before DiTrbL3 1 nM
# Experimental: Comprehensive study of the phosphorylated tyrosine kinase receptor was conducted using a phospho-RTK array in accordance with the manufacturer’s protocol (Proteome Profiler mouse Phospho-RTK Array Kit, ARY014, R&D Systems). The phosphorylation level was evaluated by pixel density and quantified by Image J Software.
row,Molecule,"TrkB phosphorylation signal induced by DiTrbL3, RTK array and densitometric analysis"
1,"O=C(Nc1ccccc1C(=O)NC1CCCCNC1=O)c1cc2ccccc2s1 (stereo not drawn) [ANA-12, reference compound]",reduction in TrkB phosphorylation signal

# Tested on: Erk½
# Test: Western blot of phosphorylated Erk½ in primary hippocampal neurons
# Assay type: cell-based, mouse
# Details: ANA-12 100 µM added 30 minutes before 1 nM DiTrbL3; p<0.01
# Experimental: as §1, §2, §3
row,Molecule,phosphorylation of Erk½ induced by DiTrbL3
1,"O=C(Nc1ccccc1C(=O)NC1CCCCNC1=O)c1cc2ccccc2s1 (stereo not drawn) [ANA-12, reference compound]",the phosphorylation activity decreased; also recorded: suppressed

# Target: extracellular domain of hTrkA (Homo sapiens, UniProt P04629)
# Test: SPR binding kinetics (Biacore T200), hTrkA
# Set-up: the extracellular domain of hTrkA, hTrkC, and hTrkB
# Details: Homodimer (peptide complex), 1:1 binding model
# Experimental: as §4, §5
# Chain of extracellular domain of hTrkA (P04629 33-423 limits assumed): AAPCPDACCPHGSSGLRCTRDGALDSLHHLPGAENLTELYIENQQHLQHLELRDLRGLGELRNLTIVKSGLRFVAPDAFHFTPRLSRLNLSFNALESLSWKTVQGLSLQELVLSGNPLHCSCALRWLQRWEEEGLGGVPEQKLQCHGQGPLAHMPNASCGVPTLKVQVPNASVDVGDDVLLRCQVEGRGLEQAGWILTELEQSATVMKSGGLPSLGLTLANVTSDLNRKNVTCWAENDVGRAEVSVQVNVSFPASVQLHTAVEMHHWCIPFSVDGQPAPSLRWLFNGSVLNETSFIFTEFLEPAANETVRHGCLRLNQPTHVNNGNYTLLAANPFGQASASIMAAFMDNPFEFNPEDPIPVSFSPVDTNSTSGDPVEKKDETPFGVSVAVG
row,Molecule,"binding affinity KD, TrkA"
1,"I: {CH2CO}-YRHNSYEASAFWCGSGSGS[NH(CH2CH2O)6CH2CO][Dap]-NH2 / II: {CH2CO}-YRHNSYEASAFWCGSGSGS[NH(CH2CH2O)6CH2CO] (amide I:21-II:C; thioether I:N-I:13, II:N-II:13) [DiTrbL1]",N.B.
